Positions of bridges follow the written chain, without caps; N, C: chain ends. Residues, ends and D or L forms follow the SMILES beside them.
What was measured:
[1] = molecular target: binding of thrombin to thrombomodulin (Homo sapiens, UniProt P00734); assay: Activity of synthetic peptides to inhibit the binding of thrombin to thrombomodulin (Dixon plot); settings: D123Asp-coated plate, crosslinked synthetic peptide
Protocol: The acitvity of each of the synthetic peptides to inhibit the binding of thrombin to thrombomodulin is determined by the following method. D123Asp purified in Example 1-(4)-(b) is diluted with 0.1M sodium bicarbonate buffer (pH 9.2) so that the final concentration of D123Asp becomes 1.5 μg/ml. 100 μl of the diluent is dispensed to each well of a flat-bottomed 96 well-microtiter plate for ELISA. The plate is allowed to stand for 3 hours, and then each well is washed with 0.1M sodium bicarbonate buffer (pH 9.2). 150 μl of 50 mM Tris-HCl buffer (pH 7.5) containing 0.1M NaCl and 1% BSA is dispensed to each well, and the plate is allowed to stand for 2 hours so that each well is subjected to blocking. To each well of the plate is added a solution obtained by reacting thrombin (0 to 0.4 μg/μl), which has been diluted with a washing solution {50 mM Tris-HCl buffer (pH 7.5) containing 0.5% BSA and 0.05% Tween-20}, with various concentrations of the synthetic peptide solutions at 37° C. for 30 minutes, and a reaction is conducted at room temperature for 1 hour. The plate is washed again with the above-mentioned washing solution. To each well of the plate is added 100 μl of 50 mM Tris-HCl buffer (pH 8.0) containing 0.1M NaCl, in which 200 μM H-D-Phe-Pip-Arg-pNA (Kabi Virum, Sweden, catalog No. S2238) has been dissolved, to thereby liberate pNA (paranitroanilin). A few hours later, the absorbance of the liberated pNA is measured at a wavelength of 410 nm. To determine the inhibition constant (Ki) of each of the synthetic peptides, 100/v in which v represents the thrombin activity (expressed in %) at the time when a peptide having a predetermined concentration is added, assuming the thrombin activity in the absence of a peptide as 100%, is plotted in rectangular coordinates against the concentration of the peptide to-obtain a graph (Dixon plot). The inhibition constant (Ki) is defined as the reading of the intersection of the plotted line with the abscissa.

[2] = molecular target: T1, thrombin-catalyzed activation of GDPC (protein C having no Gla domain) (Homo sapiens, UniProt P00734); assay: Same assay with protein C having no Gla domain (GDPC) instead of protein C; type: biochemical; settings: calcium ion concentrations of 0 to 5 mM
T1 construct: 3 μl of thrombin (manufactured and sold by Sigma Chemical Company, catalog No. T-6759, 20 ng/μl); purchased Sigma Chemical Company T-6759
Protocol: (§1) With respect to the polypeptide solutions (0.4 μg/ml) purified and quantitated in Example 1-(5)-(d), the activity of polypeptides to promote the thrombin-catalyzed activation of protein C is measured according to the method described in Example 1-(3). The CaCl2 concentration of 10×Assay buffer is adjusted so that the activities at calcium ion concentrations of 0 to 5 mM are determined. Also, with respect to protein C having no Gla domain (hereinafter referred to as "GDPC") which is prepared by chymotrypsin treatment according to the method of N. L. Esmon [J. Biol. Chem. Vol. 258, pp. 5548-5553 (1983)]and which is used instead of protein C, the activity measurement is carried out within the same range of calcium concentration.

[3] = molecular target: T2, thrombin-catalyzed activation of protein C (Homo sapiens, UniProt P00734); assay: Assay of the activity to promote the thrombin-catalyzed activation of protein C (Example 1-(3), fluorogenic substrate Boc-Leu-Ser-Thr-Arg-MCA); type: biochemical, bovine; set-up: 3 μl of thrombin (manufactured and sold by Sigma Chemical Company, catalog No. T-6759, 20 ng/μl); purchased Sigma Chemical Company T-6759; settings: for activity to promote the thrombin-catalyzed activation of protein C (in words): purified polypeptide from COS-1, calcium ion concentrations of 0 to 5 mM
Protocol: 5 μl of the supernatant of the culture of COS-1 cells is transformed by each of plasmids pSV2TMD7 and pSV2TMD8, 3 μl of thrombin (manufactured and sold by Sigma Chemical Company, catalog No. T-6759, 20 ng/μl), 5 μl of 10×Assay Buffer containing 1M NaCl, 30 mM CaCl2, 1% calf serum albumin and 0.5M tris-HCl buffer (pH 8.5) and 29.5 μl of distilled water are mixed together and allowed to stand at 37° C. for 5 minutes, followed by the addition of 7.5 μl protein C (derived from bovine, 0.2 μg/μl) to the mixture. The reaction is conducted at 37° C. for 30 minutes, and terminated by adding 6.25 μl of a stop solution (20 mM tris-HCl buffer, pH7.5, containing 100 mM NaCl, 0.3A280 anti-thrombin III and 100 μg/ml heparin).
The activity of activated protein C is measured by first adding 10 μl of Boc-Leu-Ser-Thr-Arg-MCA (manufactured and sold by Peptide Institute, The Foundation (Japan), 5 mg/ml), 5 μl of 5M CsCl and 495 μl of a substrate reaction buffer (50 mM tris-HCl buffer containing 100 mM NaCl (pH 8.5)), next allowing the reaction to proceed at 37° C. for 20 minutes, then terminating the reaction by adding 55 μl of acetic acid, and finally measuring the concentration of liberated AMC ([…]) by means of a spectrofluorometer (model RF-540, manufactured and sold by Shimadzu Corporation, Japan) at an excitation wavelength of 380 nm and an emission wavelength of 440 nm. The obtained fluorescence intensity is compared with the fluorescence intensity of a solution having a known AMC concentration to determine the amount of the liberated AMC. The value obtained by deducting from this amount the amount of AMC in the case where an aqueous solution containing no polypeptide of the present invention is added, represents the activity of the polypeptide to promote the thrombin-catalyzed activation of protein C. The activity to produce 1 nM of activated protein C per ml of reaction mixture and per minute is defined as 1 u (unit).
as §1

[4] = tested on: thrombin-catalyzed platelet aggregation; assay: Platelet aggregation-inhibiting activity (Platelet Rich Plasma, HEMA TRACER IV); type: cell-based; settings: polypeptide purified from Acremonium chrysogenum (Example 6(4))
Protocol: The activity of each of the polypeptides of the present invention to inhibit the thrombin-catalyzed platelet aggregation is evaluated using platelet aggregation measuring apparatus HEMA TRACER IV (manufactured and sold by NIKO Bioscience, Inc., Japan). Measurement is carried out according to the manual attached thereto. When 40 μl of a 20 NIH unit/ml thrombin solution (manufactured and sold by SIGMA Chemical Co., U.S.A., T 6759) is added to 180 μl of a Platelet Rich Plasma (PRP) platelet solution (3×10^5 cells/μl) and incubated, the aggregation of platelets occurs. […] The aggregation of platelets is determined on the basis of the transparency, assuming the transparency of Platelet Poor Plasma (PPP) solution as 100%. The ratio of platelet aggregation is plotted against the incubation time (0 min: the time when thrombin or a mixture of thrombin and one of the polypeptides is added to the PRP solution). It is confirmed that the platelet aggregation is inhibited when one of the polypeptides of the present invention is added.

[5] = molecular target: thrombin-catalyzed conversion of fibrinogen to fibrin (Homo sapiens, UniProt P00734); assay: Anticoagulating activity: clotting time of a fibrinogen solution; type: biochemical; settings: polypeptide purified from Acremonium chrysogenum (Example 6(4))
Protocol: The activity of each of the polypeptides of the present invention to inhibit the thrombin-catalyzed conversion of fibrinogen to fibrin so as to inhibit blood coagulation, is determined by measuring clotting time using Coagulometer KC-10A (manufactured and sold by Heinrich Amelung A.G., Germany). Illustratively stated, to 0.05M Tris-HCl buffer (pH 7.5) containing 5 mM CaCl2 and 0.1M NaCl is added 3.0 μg of fibrinogen (Fraction I, manufactured and sold by Sigma Chemical Company, U.S.A.). To the resultant mixture is added 0 to 50 nM of each of the purified polypeptides of the present invention. Then, 10 nM thrombin is added to the mixture in such an amount that the total amount of the mixture becomes 0.4 ml, and then the coagulation time of the mixture is measured.

[6] = molecular target: T2, thrombin-catalyzed activation of protein C; assay: Activated protein C formation against reaction time with purified polypeptide (Example 4-(6)); type: biochemical
Protocol: To 0.02M Tris-HCl buffer (pH 8.5) containing 0.1M NaCl, 0.5 mM CaCl2 and 10 mg/ml BSA are added 50 μg/ml protein C, 5 nM thrombin and 5 nM of each of the purified polypeptides of the present invention, and reacted at 37° C. To each of the reaction mixtures are added 300 μg/ml antithrombin III (manufactured and sold by Sigma Chemical Company, U.S.A.) and 5 mM EDTA to terminate the reaction. Then, the amount of the activated protein C produced by the reaction is determined by the method described in Example 1-(3) in which a synthetic substrate is used.

Compound: CSCC[C@H](N)C(=O)N[C@@H](Cc1ccccc1)C(=O)N[C@H]1CSSC[C@@H](C(=O)N[C@@H](CC(=O)O)C(=O)O)NC(=O)[C@H](CC(=O)O)NC(=O)[C@H](C)NC(=O)[C@@H]2CCCN2C(=O)[C@H](C)NC(=O)[C@H](C)NC(=O)[C@H]([C@@H](C)O)NC(=O)[C@H](CCC(N)=O)NC(=O)[C@H](CC(N)=O)NC1=O [Polypeptide A, Met-Phe-Cys-Asn-Gln-Thr-Ala-Ala-Pro-Ala-Asp-Cys-Asp] (H-MFCNQTAAPADCD-OH; disulfide 3-12)
- Inhibition constant (Ki) [1]: no inhibiting activity

Compound: C[C@H](N)C(=O)N[C@H]1CSSC[C@@H](C(=O)N[C@@H](CCC(=O)O)C(=O)O)NC(=O)[C@H](CO)NC(=O)[C@H](C)NC(=O)[C@H](CCC(N)=O)NC(=O)[C@H]([C@@H](C)O)NC(=O)[C@H](CC(N)=O)NC(=O)[C@@H]2CCCN2C(=O)[C@H](CC(=O)O)NC(=O)[C@H](C)NC(=O)[C@H](CC(=O)O)NC(=O)[C@H](C)NC(=O)[C@@H]2CCCN2C1=O [Polypeptide B, Ala-Cys-Pro-Ala-Asp-Ala-Asp-Pro-Asn-Thr-Gln-Ala-Ser-Cys-Glu] (H-ACPADADPNTQASCE-OH; disulfide 2-14)
- Inhibition constant (Ki) [1]: no inhibiting activity

Compound: CC[C@H](C)[C@H](NC(=O)[C@H](CC(=O)O)NC(=O)[C@@H](NC(=O)[C@@H]1CSSC[C@H](NC(=O)[C@@H](N)CCC(=O)O)C(=O)N2CCC[C@H]2C(=O)N[C@@H](CCC(=O)O)C(=O)NCC(=O)N[C@@H](Cc2ccc(O)cc2)C(=O)N[C@@H]([C@@H](C)CC)C(=O)N[C@@H](CC(C)C)C(=O)N[C@@H](CC(=O)O)C(=O)N[C@@H](CC(=O)O)C(=O)NCC(=O)N[C@@H](Cc2ccccc2)C(=O)N[C@@H]([C@@H](C)CC)C(=O)N1)[C@@H](C)O)C(=O)N[C@@H](CC(=O)O)C(=O)N[C@@H](CCC(=O)O)C(=O)O [Polypeptide C, Glu-Cys-Pro-Glu-Gly-Tyr-Ile-Leu-Asp-Asp-Gly-Phe-Ile-Cys-Thr-Asp-Ile-Asp-Glu] (H-ECPEGYILDDGFICTDIDE-OH; disulfide 2-14)
- Ki ([1]; read-out: Inhibition constant (Ki)): 95 µM

Compound: D123Ala: polypeptide up to the 516th position of human thrombomodulin wherein the 367th Asp is changed to Ala (pSV2TMM1)
- activity in the activation of GDPC (in words) [2]: low activity
- activity to promote the thrombin-catalyzed activation of protein C (in words) [3]: low activity

Compound: D123Glu: polypeptide up to the 516th position of human thrombomodulin wherein the 367th Asp is changed to Glu (pSV2TMM2)
- activity relative to that of D123Asp ([3]; activation of protein C): 1.2 times
- activity to promote the thrombin-catalyzed activation of protein C (in words) [3]: activity similar to that of D123Asp

Compound: E456Glu: 367th to 480th amino acid residues of human thrombomodulin in which the 367th Asp is replaced by Glu (pSV2TMM3)
- thrombin-catalyzed platelet aggregation (in words) [4]: inhibited
- clotting time of fibrinogen solution against amount of polypeptide (in words) [5]: the longer the clotting time
- activity relative to that of E456Asp ([3]; activation of protein C): 1.3 times
- amount of activated protein C with reaction time (in words) ([6]; 5 nM polypeptide, 5 nM thrombin, 50 μg/ml protein C, 37° C., polypeptide from COS-1 or CHO cells): increased with the lapse of reaction time
- amount of activated protein C with reaction time (in words) ([6]; polypeptide purified from Acremonium chrysogenum strains D71 and M31 (Example 6(4))): increased with the lapse of reaction time
